# According to paper PMC4940160, “Architecture and RNA binding of the human negative elongation factor”:
# B1: 60% GC dsDNA (dsDNA)
# DNA 1: AAGGGGAGCGGGGGAGGATAATAGG
# DNA 2: CCTATTATCCTCCCCCGCTCCCCTT
# B2: 60% GC DNA-RNA hybrid (DNA:RNA)
# DNA: AAGGGGAGCGGGGGAGGATAATAGG
# RNA: CCUAUUAUCCUCCCCCGCUCCCCUU
# What was measured:
# [1] = biological target: NELF-A (6-188);NELF-C (183-590) (Homo sapiens;Homo sapiens, UniProt Q9H3P2;Q8IXH7 6-188;183-590, |); test: fluorescence anisotropy; NELF-AC: 30 mM NaCl, 3 mM MgCl2, 10 mM Na-HEPES pH 7.4, 2 mM DTT, 50 ug/ml BSA; other NELF complexes: same with 60 mM NaCl and 5 ug/ml yeast tRNA; 10 nM nucleic acid, incubated at RT, read at 30 C; settings: protein: recombinant;recombinant, tags: N-His6 removed by thrombin;none, copies: 1;1
# Chain of NELF-A (6-188);NELF-C (183-590) (Q9H3P2 6-188, chain 1 of 2): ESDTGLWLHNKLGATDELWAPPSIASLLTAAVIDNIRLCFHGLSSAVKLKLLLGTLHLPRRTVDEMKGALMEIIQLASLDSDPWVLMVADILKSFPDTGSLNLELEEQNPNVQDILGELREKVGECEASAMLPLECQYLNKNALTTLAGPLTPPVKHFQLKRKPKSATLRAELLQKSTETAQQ
# Chain of NELF-A (6-188);NELF-C (183-590) (Q8IXH7 183-590, chain 2 of 2): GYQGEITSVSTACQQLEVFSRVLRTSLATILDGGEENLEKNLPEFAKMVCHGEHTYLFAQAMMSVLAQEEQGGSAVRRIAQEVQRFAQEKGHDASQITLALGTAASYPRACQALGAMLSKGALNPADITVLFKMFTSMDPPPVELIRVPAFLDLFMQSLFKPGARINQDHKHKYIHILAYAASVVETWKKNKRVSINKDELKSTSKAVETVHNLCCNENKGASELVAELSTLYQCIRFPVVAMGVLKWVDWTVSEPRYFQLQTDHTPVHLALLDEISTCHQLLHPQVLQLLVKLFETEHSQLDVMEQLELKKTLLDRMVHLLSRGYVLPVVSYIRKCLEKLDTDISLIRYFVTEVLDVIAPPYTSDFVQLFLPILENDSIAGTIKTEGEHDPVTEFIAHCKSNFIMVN
# [2] = biological target: T1, NELF-A (6-188) patches 1,4;NELF-C (183-590) patches 1,2,4 (Homo sapiens;Homo sapiens, UniProt Q9H3P2;Q8IXH7 6-188;183-590, R65Q;R66Q;K146M;K161M;K168M;R175Q|R291Q;K315M;K371M;K372M;K374M;R419Q;R506Q); test: as above; settings: protein: recombinant;recombinant; tags: N-His6 removed by thrombin;none; copies: 1;1; label: 5'-FAM; single strand
# [3] = biological target: NELF-A (6-188) patches 1,4;NELF-C (183-590) patches 1,2,3,4 (Homo sapiens;Homo sapiens, UniProt Q9H3P2;Q8IXH7 6-188;183-590, R65Q;R66Q;K146M;K161M;K168M;R175Q|R291Q;K315M;K371M;K372M;K374M;K384M;K388M;R419 …); test: as above; settings: protein: recombinant;recombinant; tags: N-His6 removed by thrombin;none; copies: 1;1; label: 5'-FAM; single strand
# [4] = biological target: NELF-A full-length;NELF-B;NELF-D (called NELF-C);NELF-E (1-138) (Homo sapiens;Homo sapiens;Homo …, UniProt Q9H3P2;Q8WX92;Q8IXH7-4;P18615 1-528;49-628;1-581;1-138, |||); test: fluorescence anisotropy; yeast tRNA 5 ug/ml; NELF-AC: 30 mM NaCl, 3 mM MgCl2, 10 mM Na-HEPES pH 7.4, 2 mM DTT, 50 ug/ml BSA; other NELF complexes: same with 60 mM NaCl and 5 ug/ml yeast tRNA; 10 nM nucleic acid, incubated at RT, read at 30 C; settings: protein: recombinant;recombinant;recombinant;recombinant, copies: 1;1;1;1, label: 5'-FAM
# Chain of NELF-A full-length;NELF-B;NELF-D (called NELF-C);NELF-E (1-138) (Q9H3P2 whole entry, chain 1 of 4): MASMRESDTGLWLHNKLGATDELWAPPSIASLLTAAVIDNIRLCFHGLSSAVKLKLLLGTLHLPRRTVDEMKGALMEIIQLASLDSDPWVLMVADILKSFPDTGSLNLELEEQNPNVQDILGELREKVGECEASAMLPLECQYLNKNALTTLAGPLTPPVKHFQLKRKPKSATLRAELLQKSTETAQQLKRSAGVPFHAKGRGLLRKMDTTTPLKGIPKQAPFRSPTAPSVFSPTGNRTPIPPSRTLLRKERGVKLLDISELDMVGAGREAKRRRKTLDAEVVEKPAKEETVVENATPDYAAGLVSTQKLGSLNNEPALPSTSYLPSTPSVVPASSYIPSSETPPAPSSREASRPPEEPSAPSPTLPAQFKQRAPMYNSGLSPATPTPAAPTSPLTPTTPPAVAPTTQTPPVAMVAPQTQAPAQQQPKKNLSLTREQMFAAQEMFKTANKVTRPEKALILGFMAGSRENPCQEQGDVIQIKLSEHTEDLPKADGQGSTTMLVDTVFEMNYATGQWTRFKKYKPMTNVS
# Chain of NELF-A full-length;NELF-B;NELF-D (called NELF-C);NELF-E (1-138) (Q8WX92 whole entry, chain 2 of 4): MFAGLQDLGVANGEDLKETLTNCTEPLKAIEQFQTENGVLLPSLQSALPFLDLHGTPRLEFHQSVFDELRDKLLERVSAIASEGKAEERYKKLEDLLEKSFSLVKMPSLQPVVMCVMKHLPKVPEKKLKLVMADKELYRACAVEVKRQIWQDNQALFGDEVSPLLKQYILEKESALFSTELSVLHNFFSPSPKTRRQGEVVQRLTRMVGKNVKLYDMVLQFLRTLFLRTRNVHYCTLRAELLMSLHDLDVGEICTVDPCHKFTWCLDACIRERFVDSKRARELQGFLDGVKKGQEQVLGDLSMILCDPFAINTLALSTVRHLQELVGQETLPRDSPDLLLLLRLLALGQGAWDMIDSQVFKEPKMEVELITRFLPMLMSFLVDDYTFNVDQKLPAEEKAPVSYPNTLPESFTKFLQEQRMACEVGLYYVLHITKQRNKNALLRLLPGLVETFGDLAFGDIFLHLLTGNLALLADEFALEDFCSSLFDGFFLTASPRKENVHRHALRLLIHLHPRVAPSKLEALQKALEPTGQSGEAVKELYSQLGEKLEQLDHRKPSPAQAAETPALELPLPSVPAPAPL
# Chain of NELF-A full-length;NELF-B;NELF-D (called NELF-C);NELF-E (1-138) (Q8IXH7 10-590, chain 3 of 4): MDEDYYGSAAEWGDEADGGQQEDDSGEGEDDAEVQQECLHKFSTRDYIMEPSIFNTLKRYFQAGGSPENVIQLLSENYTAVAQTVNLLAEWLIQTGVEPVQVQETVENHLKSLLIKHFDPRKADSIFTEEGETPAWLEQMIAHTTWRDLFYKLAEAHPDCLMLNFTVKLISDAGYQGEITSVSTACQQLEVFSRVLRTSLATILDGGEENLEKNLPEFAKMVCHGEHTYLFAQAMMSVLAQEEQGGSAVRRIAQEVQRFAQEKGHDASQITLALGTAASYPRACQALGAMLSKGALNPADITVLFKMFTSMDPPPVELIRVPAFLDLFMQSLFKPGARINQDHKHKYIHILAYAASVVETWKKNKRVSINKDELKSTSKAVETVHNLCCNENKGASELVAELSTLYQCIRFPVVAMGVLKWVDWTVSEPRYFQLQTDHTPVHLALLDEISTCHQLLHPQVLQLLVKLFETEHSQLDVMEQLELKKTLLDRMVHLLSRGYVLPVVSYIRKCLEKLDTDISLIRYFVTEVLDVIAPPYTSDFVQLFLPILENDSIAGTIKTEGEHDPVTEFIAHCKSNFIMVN
# Chain of NELF-A full-length;NELF-B;NELF-D (called NELF-C);NELF-E (1-138) (P18615 1-138, chain 4 of 4): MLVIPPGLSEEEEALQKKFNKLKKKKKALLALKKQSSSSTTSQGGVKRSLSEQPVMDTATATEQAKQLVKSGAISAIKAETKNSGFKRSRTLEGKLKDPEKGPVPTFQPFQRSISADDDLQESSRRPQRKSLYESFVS
# [5] = biological target: NELF-B (Homo sapiens, UniProt Q8WX92 49-628); test: as above; settings: protein: recombinant; tags: N-His6-TEV in NELF-B and NELF-BE constructs (cleaved); label: 5'-FAM; single strand
# [6] = biological target: NELF-A full-length;NELF-B;NELF-D patch mutant (called NELF-C);NELF-E (1-138) (Homo sapiens;Homo sapiens;Homo …, UniProt Q9H3P2;Q8WX92;Q8IXH7-4;P18615 1-528;49-628;1-581;1-138, ||R282Q;K306M;K362M;K363M;K365M;K375M;K379M;R410Q;R497Q|); test: as above; settings: protein: recombinant;recombinant;recombinant;recombinant; copies: 1;1;1;1; label: 5'-FAM; single strand
# [7] = biological target: NELF-B;NELF-E (1-138) (Homo sapiens;Homo sapiens, UniProt Q8WX92;P18615 49-628;1-138, |); test: as above; settings: protein: recombinant;recombinant, tags: N-His6-TEV in NELF-B and NELF-BE constructs (cleaved);none stated, copies: 1;1, label: 5'-FAM
# Chain of NELF-B;NELF-E (1-138) (Q8WX92 whole entry, chain 1 of 2): as the sequence (Q8WX92 whole entry, chain 2 of 4) above
# Chain of NELF-B;NELF-E (1-138) (P18615 1-138, chain 2 of 2): as the sequence (P18615 1-138, chain 4 of 4) above
# [8] = biological target: NELF-A full-length;NELF-B;NELF-D (called NELF-C) (Homo sapiens;Homo sapiens;Homo sapiens, UniProt Q9H3P2;Q8WX92;Q8IXH7-4 1-528;49-628;1-581, ||); test: as above; settings: protein: recombinant;recombinant;recombinant, tags: none stated;N-His6-TEV in NELF-B and NELF-BE constructs (cleaved);N-His6-TEV, cleaved, copies: 1;1;1, label: 5'-FAM
# Chain of NELF-A full-length;NELF-B;NELF-D (called NELF-C) (Q9H3P2 whole entry, chain 1 of 3): as the sequence (Q9H3P2 whole entry, chain 1 of 4) above
# Chain of NELF-A full-length;NELF-B;NELF-D (called NELF-C) (Q8WX92 whole entry, chain 2 of 3): as the sequence (Q8WX92 whole entry, chain 2 of 4) above
# Chain of NELF-A full-length;NELF-B;NELF-D (called NELF-C) (Q8IXH7 10-590, chain 3 of 3): as the sequence (Q8IXH7 10-590, chain 3 of 4) above
# [9] = biological target: T2, NELF-A full-length;NELF-B;NELF-D patch mutant (called NELF-C) (Homo sapiens;Homo sapiens;Homo sapiens, UniProt Q9H3P2;Q8WX92;Q8IXH7-4 1-528;49-628;1-581, ||R282Q;K306M;K362M;K363M;K365M;K375M;K379M;R410Q;R497Q); test: fluorescence anisotropy; yeast tRNA 5 ug/ml; error as printed; NELF-AC: 30 mM NaCl, 3 mM MgCl2, 10 mM Na-HEPES pH 7.4, 2 mM DTT, 50 ug/ml BSA; other NELF complexes: same with 60 mM NaCl and 5 ug/ml yeast tRNA; 10 nM nucleic acid, incubated at RT, read at 30 C; settings: protein: recombinant;recombinant;recombinant, tags: none stated;N-His6-TEV in NELF-B and NELF-BE constructs (cleaved);N-His6-TEV, copies: 1;1;1, label: 5'-FAM, single strand
# [10] = biological target: T2, NELF-A full-length;NELF-B;NELF-D patch …; test: fluorescence anisotropy; yeast tRNA 5 ug/ml; NELF-AC: 30 mM NaCl, 3 mM MgCl2, 10 mM Na-HEPES pH 7.4, 2 mM DTT, 50 ug/ml BSA; other NELF complexes: same with 60 mM NaCl and 5 ug/ml yeast tRNA; 10 nM nucleic acid, incubated at RT, read at 30 C; settings: protein: recombinant;recombinant;recombinant; tags: none stated;N-His6-TEV in NELF-B and NELF-BE constructs (cleaved);N-His6-TEV, cleaved; copies: 1;1;1; label: 5'-FAM; single strand
# [11] = biological target: T1, NELF-A (6-188) patches 1,4;NELF-C …; test: fluorescence anisotropy; text says impaired; Bmax printed 12.92; NELF-AC: 30 mM NaCl, 3 mM MgCl2, 10 mM Na-HEPES pH 7.4, 2 mM DTT, 50 ug/ml BSA; other NELF complexes: same with 60 mM NaCl and 5 ug/ml yeast tRNA; 10 nM nucleic acid, incubated at RT, read at 30 C; settings: protein: recombinant;recombinant; tags: N-His6 removed by thrombin;none; copies: 1;1; label: 5'-FAM; single strand
# [12] = biological target: NELF-A full-length;NELF-B;NELF-D (called NELF-C);NELF-E full-length (Homo sapiens;Homo sapiens;Homo …, UniProt Q9H3P2;Q8WX92;Q8IXH7-4;P18615 1-528;49-628;1-581;1-380, |||); test: fluorescence anisotropy; yeast tRNA 5 ug/ml; NELF-AC: 30 mM NaCl, 3 mM MgCl2, 10 mM Na-HEPES pH 7.4, 2 mM DTT, 50 ug/ml BSA; other NELF complexes: same with 60 mM NaCl and 5 ug/ml yeast tRNA; 10 nM nucleic acid, incubated at RT, read at 30 C; settings: protein: recombinant;recombinant;recombinant;recombinant; copies: 1;1;1;1; label: 5'-FAM; hairpin
binder,measurement,setting,value
AAGGGGAGCGGGGGAGGAUAAUAGG (ssRNA) [60% GC ssRNA],Kd,"[1]; label: 5'-FAM, single strand",6870 ± 460 nM
same,Kd,[2],14300 ± 2410 nM
same,Kd,[3],14300 ± 2670 nM
same,Kd,[4]; single strand,30 ± 7 nM
same,Kd,[5],8500 ± 1590 nM
same,Kd,[6],94 ± 20 nM
same,Kd,[7]; single strand,2830 ± 1000 nM
same,Kd,[8]; single strand,74 ± 14 nM
same,Kd,[9],290 nM
B1,binding result,[1]; label: 5'-FAM,no binding
ACCCCACAACUAAAAAAUCCCAACC (ssRNA) [44% GC ssRNA],binding result,"[1]; label: 5'-FAM, single strand",no binding
AAGGGGAGCGGGGGAGGATAATAGG (ssDNA) [60% GC ssDNA],Kd,"[1]; label: 5'-FAM, single strand",17500 ± 1330 nM
same,Kd,[4]; single strand,30 ± 10 nM
same,Kd,[5],6310 ± 1920 nM
same,Kd,[6],300 ± 80 nM
same,Kd,[10],770 ± 20 nM
same,Kd,[7]; single strand,17400 ± 3500 nM
same,Kd,[8]; single strand,100 ± 30 nM
same,Kd,[11],12900 ± 2280 nM
AGCGGCCAGGCCAGCCUCGGAGCCA (ssRNA) [junB ssRNA],Kd,"[1]; label: 5'-FAM, single strand",~8000 nM
CCAGAUCUGAGCCUGGGAGCUCUCUGG (structured_RNA) [HIV-1 TAR RNA stem loop],Kd,[4]; hairpin,869 ± 140 nM
same,Kd,[7]; hairpin,5590 ± 1050 nM
same,Kd,[8]; hairpin,1320 ± 180 nM
same,Kd,[12],146 ± 30 nM
B2,binding result,[1],no binding
AAGACTGAGCCGGCGGCCGC (ssDNA) [c-fos ssDNA],binding result,"[1]; label: 5'-FAM, single strand",binds
